The target of this test is T1, TetR-RasV12A186 (bacterial transposon Tn10, UniProt P04483 1-207; P01112 1-189).
T1 construct: Yeast two-hybrid bait
In words: yeast two-bait interaction trap, TetOp-URA3 reporter (growth without uracil).

T1 sequence (P04483 1-207, tags or fused parts left off): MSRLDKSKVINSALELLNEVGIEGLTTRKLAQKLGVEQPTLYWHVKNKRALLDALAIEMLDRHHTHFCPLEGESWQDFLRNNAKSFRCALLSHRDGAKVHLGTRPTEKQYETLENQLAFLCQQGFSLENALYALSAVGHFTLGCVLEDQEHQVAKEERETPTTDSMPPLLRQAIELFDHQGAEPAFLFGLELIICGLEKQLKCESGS
Protocol: The LexA and TetR fusion bait proteins were expressed in a yeast cell that also contained an integrated TetOp-URA3 reporter and an episomal LexAOp-lacZ reporter. Expression of baits in these "two-bait" cells was under the control of the ADH1 promoter. The TetOp-URA3 reporter was integrated into the LYS2 gene. The LexAOp-lacZ reporter, a derivative of pSH18–34, was carried on pCXW24, a 2 μm plasmid with a LYS2 marker.

B1: B42-Mxi1 (other, UniProt P50539 1-228, looked up, not shown: large carriers)
chain: MERVKMINVQRLLEAAEFLERRERECEHGYASSFPSMPSPRLQHSKPPRRLSRAQKHSSGSSNTSTANRSTHNELEKNRRAHLRLCLERLKVLIPLGPDCTRHTTLGLLNKAKAHIKKLEEAERKSQHQLENLEREQRFLKWRLEQLQGPQEMERIRMDSIGSTISSDRSDSEREEIEVDVESTEFSHGEVDNISTTSISDIDDHSSLPSIGSDEGYSSASVKLSFTS
notes: Yeast two-hybrid prey, used as a positive control with Max
For B1, the binding result is “no binding”.

The values above are taken from patent US6858382 (GENERAL HOSPITAL, dated 2005).
